According to patent US11162953B2, “Protein binding domains stabilizing functional conformational states of GPCRS and uses thereof” (priority 2010, dated 2021):
Entries after “also recorded” stand apart in the source; their conditions may differ.

Tests used:
[1] = test system: β2AR; test: Size exclusion chromatography of nanobody with purified agonist- or inverse agonist-bound β2AR; format: binding, human; conditions: 20 μM β2AR bound to agonist or inverse agonist, 40 μM nanobody
Description: The mixture was then analyzed by Size Exclusion Chromatography (SEC), which separates protein on the basis of size. Seven of the nanobodies bound to purified β2AR and migrated as a complex on SEC only in the presence of agonist and not an inverse agonist (an example is shown in FIG. 1, Panel a, FIGS. 3A, 3B, and FIG. 4).
Agonist selective nanobodies were identified by size exclusion chromatography following incubation of 20 μM agonist or inverse agonist-(carazolol-) bound β2AR-365N for one hour at RT in the absence or presence of 40 μM nanobody.

[2] = target: T1, β2AR (Homo sapiens, UniProt P07550); conditions: agonist competition binding, Sf9 membranes
Source text: The IC50 values used for calculations of Ki values were obtained from means of pIC50 values determined by nonlinear regression analysis using Prism (GraphPad Software, San Diego, Calif.) and the s.e. interval from pIC50±s.e.

[3] = target: dopamine D1 receptor (Homo sapiens, UniProt P21728); test: Effect of Nb80 on unrelated receptor; format: binding; conditions: data not shown
Sequence of dopamine D1 receptor (P21728 whole entry, species assumed, the tested form may be a part): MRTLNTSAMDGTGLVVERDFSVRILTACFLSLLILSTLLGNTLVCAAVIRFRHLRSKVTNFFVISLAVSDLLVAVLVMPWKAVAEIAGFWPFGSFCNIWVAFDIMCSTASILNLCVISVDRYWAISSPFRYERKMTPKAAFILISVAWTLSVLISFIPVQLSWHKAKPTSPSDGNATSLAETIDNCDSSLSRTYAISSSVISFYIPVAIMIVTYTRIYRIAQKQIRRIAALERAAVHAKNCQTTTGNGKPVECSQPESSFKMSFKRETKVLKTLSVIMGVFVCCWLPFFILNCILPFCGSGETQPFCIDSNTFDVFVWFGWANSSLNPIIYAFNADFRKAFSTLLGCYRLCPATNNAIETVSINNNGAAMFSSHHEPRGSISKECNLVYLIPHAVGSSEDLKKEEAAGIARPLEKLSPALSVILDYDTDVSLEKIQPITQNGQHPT

[4] = target: T1, β2AR; test: [3H]-DHA competition binding on β2AR reconstituted in HDL particles, with or without Gs or Nb80; parameters: recombinant β2AR truncated at Gly365 (β2AR-365); made in house; host or cells: Sf9 insect cells; conditions: β2AR/HDL
[5] = target: T1, β2AR; test: Temperature-induced aggregation of agonist-bound β2AR analyzed by SEC; parameters: made in house; conditions: isoproterenol 10 μM, 2:1 molar excess of Nb80, 10 minutes at increasing temperatures
Description: (§1) The effect of conformational selective nanobodies on the thermostability and the subsequent aggregation of the β2AR receptor was analyzed using a fluorescent thermal stability assay (FIG. 13) and size exclusion chromatography (FIGS. 14A and 14B).
We also analyzed the effect of Nb80 on the thermal unfolding and aggregation of the agonist-bound receptor by size exclusion chromatography (SEC). For this experiment, dodecylmaltoside-solubilized receptor was pre-incubated with isoproterenol (10 μM) in the presence or absence of a 2:1 molar excess of Nb80 for 45 minutes at RT. Samples were next incubated for 10 minutes at increasing temperatures and subsequently analyzed by SEC (FIGS. 14A and 14B).

[6] = target: T1, β2AR; format: binding; conditions: full-length β2AR membranes, Nb80 versus irrelevant nanobody
[7] = target: human β1AR (Homo sapiens, UniProt P08588); test: [3H]-DHA competition binding on β1AR with or without Nb80
Sequence of human β1AR (P08588 whole entry): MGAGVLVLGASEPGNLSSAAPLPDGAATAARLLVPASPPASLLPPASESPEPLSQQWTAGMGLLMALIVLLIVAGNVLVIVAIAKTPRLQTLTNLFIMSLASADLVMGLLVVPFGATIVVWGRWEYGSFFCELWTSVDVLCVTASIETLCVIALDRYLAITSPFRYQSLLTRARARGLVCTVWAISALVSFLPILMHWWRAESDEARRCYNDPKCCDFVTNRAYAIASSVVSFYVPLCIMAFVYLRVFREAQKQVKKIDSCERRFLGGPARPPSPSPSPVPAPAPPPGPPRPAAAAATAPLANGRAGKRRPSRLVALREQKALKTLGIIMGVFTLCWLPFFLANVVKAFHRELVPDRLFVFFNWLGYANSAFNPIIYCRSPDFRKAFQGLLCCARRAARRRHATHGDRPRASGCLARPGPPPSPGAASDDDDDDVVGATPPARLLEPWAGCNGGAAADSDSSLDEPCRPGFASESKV
Source text: Active state stabilizing Nanobodies that are cross-reactive to related receptors can be used as a tool to stabilize a conformational state of those related receptors. […] Using the PISA server (Krissinel & Henrick, 2007) and based on the crystal structure of the Nb80-β2AR complex, 30 β2AR AA residues were identified to interact with Nb80 in the β2AR-Nb80 interface. […] The remaining interface residues are lysines in β2AR and have been substituted by arginines in β1AR corresponding to conserved substitutions (shown in grey boxes in FIG. 17). It thus appears that both receptors share a very similar binding site for Nb80. Based on this analysis, we also measured the effect of Nb80 on the affinity of β1AR for the agonist isoproterenol and the inverse agonist […] (FIG. 18).

[8] = target: T2, β2AR-T4L (Homo sapiens, UniProt P07550, DEL231-262, form not given); test: [3H]-DHA competition binding on β2AR-T4L reconstituted in HDL particles, with or without Nb80; conditions: β2AR-T4L/HDL
T2 construct: The β2AR and β2AR-T4L (both truncated at position 365) purified as previously described (Rosenbaum et al. 2007); fused on or other part: T4 lysozyme inserted in place of the third intracellular loop between TM5 and TM6 as a crystallisation handle (published construct: residues 2-161, C54T/C97A); Reconstituted in HDL particles

[9] = test system: β2AR-T4L; test: as above; parameters: species or system human; conditions: β2AR-T4L/HDL + Nb80 versus alone
[10] = target: T1, β2AR; test: Monobromobimane fluorescence of purified mBBr-labeled β2AR; format: biochemical; parameters: made in house; conditions: 1 μM nanobody, β2AR bound to full agonist isoproterenol
Source text: To investigate the effect of nanobodies on movement of the cytoplasmic domain of TM6 we labeled purified β2AR at C265 with monobromobimane (mBB-β2AR). […] In mBB-β2AR, the addition of agonist together with G protein results in larger fluorescent changes than either agonist or G protein alone. This is compatible with the cooperative interactions observed in agonist competition binding assays (Yao et al. 2009).
Purified β2AR was reacted with 1:1 equivalent of monobromobimane (mBBr, Invitrogen) in 100 mM NaCl, 20 mM HEPES, pH 7.5, 0.1% dodecyl maltoside and incubated overnight on ice in the dark. The fluorophore-labeled receptor was purified right before use by gel filtration on a desalting column equilibrated with the same buffer. […] All experiments were performed at 25° C. […] To determine the effect of nanobodies and ligands, three individual labeled protein samples were incubated with 1 μM nanobody or 10 μM Isoproterenol or both. Emission spectra of the samples were taken after 1 hour incubation.

[11] = target: T1, β2AR; test: Fluorescent (CPM) thermal stability assay of detergent-solubilized agonist-bound β2AR; parameters: made in house
Description: as §1
The fluorescent thermal stability assay makes use of the thiol-specific fluorochrome N-[4-(7-diethylamino-4-methyl-3-coumarinyl)phenyl]maleimide (CPM) to measure the chemical reactivity of the native cysteines embedded in the protein interior as a sensor for the overall integrity of the folder state of membrane proteins (Alexandrov et al. 2008). For the fluorescent thermal stability assay, detergent-solubilized receptor (in 0.1% dodecylmaltoside, 100 mM NaCl and 20 mM Hepes pH 7.5) was pre-incubated with isoproterenol (10 μM) in the presence or absence of a 2:1 molar excess of Nb80 for one hour at RT. Samples were then mixed with CPM fluorophore and incubated for two minutes at temperatures ranging from 10° C. to 94° C. and fluorescence emission was collected. […] Unfolding transitions could be described by a simple two-state model, including the native (folded) and the denaturated state, representing the lower and upper plateaus of the melting curves.

[12] = test system: β2AR; test: [3H]-DHA competition binding on β2AR reconstituted in HDL particles, with or without Gs or Nb80; parameters: species or system human; conditions: β2AR/HDL + Nb80 versus alone

B1: NB80: β2AR-specific nanobody, SEQ ID NO:4; lead nanobody stabilizing the active state (protein, listed as Lama glama)
VHH: QVQLQESGGGLVQAGGSLRLSCAASGSIFSINTMGWYRQAPGKQRELVAAIHSGGSTNYANSVKGRFTISRDNAANTVYLQMNSLKPEDTAVYYCNVKDYGAVLYEYDYWGQGTQVTVSS
With B1 the “complex formation with β2AR on SEC” value [1] was “β2AR-agonist-Nb80 complex formation”, the “enhancement of the affinity of β2AR for the agonist isoproterenol in the presence of nanobody” value [2] was “two- to thirty-fold” and the “effect of Nb80 on unrelated receptor” value [3] was “No such effect”. The “effect of Nb80 on affinity for the inverse agonist ICI-118,551” value [4] was “does not increase the affinity; also recorded: little effect”, the “effect on temperature-induced aggregation of agonist-bound receptor (SEC)” value [5] was “protects the agonist-bound receptor against temperature-induced aggregation” and the “effect of Nb80 on β2AR affinity for ligands” value [6] was “increases β2AR affinity for agonists but not for antagonists”. For the same molecule, the “effect of Nb80 on affinity of β1AR for CGP20712A” value [7] was “does not change the affinity”, the “effect of Nb80 on affinity of β1AR for the agonist isoproterenol” value [7] was “increased affinity” and the “effect of Nb80 on affinity for the inverse agonist ICI-118,551” value [8] was “does not increase the affinity”. The “increase of isoproterenol affinity in the presence of Nb80” value [9] was 60 fold, the “nanobody-induced change of mBBr fluorescence” value [10] was “larger changes were observed when both agonist and nanobody were added together; also recorded: stabilizes a more active state of the β2AR” and the “apparent melting temperature for β2AR with Nb80” value ([11]; DDM-solubilized isoproterenol-bound β2AR, 12.0° C. without Nb80) was 24 °C. The “increase of melting temperature (Tm) of the agonist-bound receptor” value ([11]; isoproterenol 10 μM, 2:1 molar excess of Nb80) was 12 °C and the “increase of isoproterenol affinity in the presence of Nb80” value [12] was 95 fold.
